Molecular target: caveolin-1 (Cav1) (UniProt Q03135)
Assay: acceptor-photobleaching FRET, CFP/YFP pairs
Conditions: reference: Y14F-CFP/Y14F-YFP pair; sites Y14

Chain of UniProt Q03135 (Q03135 whole entry, stated change not applied): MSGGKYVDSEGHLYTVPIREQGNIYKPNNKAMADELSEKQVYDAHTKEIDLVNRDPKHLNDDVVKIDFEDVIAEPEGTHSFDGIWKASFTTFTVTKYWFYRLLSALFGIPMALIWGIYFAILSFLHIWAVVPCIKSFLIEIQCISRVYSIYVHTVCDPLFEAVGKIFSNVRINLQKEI

caveolin-1 (Cav1) (from UniProt Q03135) Y14D-CFP/Y14D-YFP pair
other: FRET efficiency: weaker; reference 0.90 ± 0.13

Reference: PMC4927282
